According to article doi:10.1101/2021.04.23.440992:

biological target: FUS-DDIT3 (Type II fusion), recombinant; experiment: partitioning of a labelled client into condensates

partition coefficient | Substance
40 | BRG1^PLD, recombinant N-terminal prion-like domain of BRG1 (from UniProt P51532 1-340) (domain or fragment)
15 | ARID1A^PLD, recombinant prion-like domain of ARID1A (domain or fragment)
27 | BRG1, recombinant, RED-tris-NTA-labeled (from UniProt P51532 1-1647) (natural protein)

The next lines start with the substance.

Substance | partition coefficient
ARID1B^PLD, recombinant prion-like domain of ARID1B (domain or fragment) | 3.8
SS18^PLD, recombinant prion-like domain of SS18 (domain or fragment) | 6
